From article PMC8892516, “Intragenic suppressors unravel the role of the SCREAM ACT-like domain for bHLH partner selectivity in stomatal development” (Proceedings of the National Academy of Sciences of the …, 2022) come the findings set out here.

Test [1] concerns the target GST-fused SCRMΔC (1-404) (Arabidopsis thaliana) (UniProt Q9LSE2). In words: BLI; as a1, samples incubated 30 min with a 1:4 molar ratio of the synthetic E-box repeat fragment; analyte 200-3.125 nM or 1000-25 nM. A general note: Biolayer interferometry detects binding as a change in optical thickness at a sensor tip.
Test [2] deals with T1, GST-fused SCRM (1-494) (Arabidopsis thaliana, UniProt Q9LSE2 1-494).
T1 construct: SCREAM (SCRM, also known as ICE1), Arabidopsis thaliana, At3G26744, residues 1-494; pGEX-4T-1 with thrombin site; GST kept because the protein was loaded on anti-GST probes for BLI; also called SCREAM; ICE1; source: E. coli BL21, purified (glutathione agarose resin); not shown: GST, N-terminal, kept
T1 sequence (looked up): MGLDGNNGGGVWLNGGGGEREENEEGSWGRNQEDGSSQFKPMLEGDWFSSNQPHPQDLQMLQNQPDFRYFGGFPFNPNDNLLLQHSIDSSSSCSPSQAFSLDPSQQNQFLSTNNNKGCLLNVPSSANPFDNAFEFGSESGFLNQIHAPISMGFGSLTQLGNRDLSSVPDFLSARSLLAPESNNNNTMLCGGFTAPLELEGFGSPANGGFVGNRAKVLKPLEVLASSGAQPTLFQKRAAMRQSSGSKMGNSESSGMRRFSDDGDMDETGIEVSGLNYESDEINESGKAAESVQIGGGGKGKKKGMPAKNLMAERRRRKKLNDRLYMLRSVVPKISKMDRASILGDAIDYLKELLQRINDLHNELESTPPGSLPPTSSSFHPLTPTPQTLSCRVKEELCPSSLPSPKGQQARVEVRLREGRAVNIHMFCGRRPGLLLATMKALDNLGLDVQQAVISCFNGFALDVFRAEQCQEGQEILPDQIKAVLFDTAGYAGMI
The description is as above. Particulars: both partners purified.

The target of test [3] is GST-fused SCRMΔC (1-404) (Arabidopsis thaliana) (UniProt Q9LSE2). The test can be described thus: BLI; as a1, samples incubated 30 min with a 1:4 molar ratio of the TMM promoter fragment containing the E-box; analyte 200-3.125 nM or 1000-25 nM.
Test [4] deals with T1, GST-fused SCRM (1-494). Described as above. Particulars: both partners purified.
Test [5] has as its target T1, GST-fused SCRM (1-494). In words: BLI; as a1, samples incubated 30 min with a 1:4 molar ratio of the TMM promoter fragment containing a mutant E-box (control); analyte 200-3.125 nM or 1000-25 nM. The note with it: both partners purified.
Test [6] has as its target T1, GST-fused SCRM (1-494). In words: BLI; Octet Red96; anti-GST probes loaded with 500 nM GST-SCRM or GST-SCRMΔC; SPCH/MUTE/FAMA as analyte at 200-3.12 nM; 30 °C; 1x PBS, 0.02% Tween 20; no DNA; 1:1 model for kon, koff and KD, steady-state analysis for KD (SS). The note with it: both partners purified.
For test [7], the target named is T2, GST-fused SCRMΔC (1-404) (Arabidopsis thaliana, UniProt Q9LSE2 1-404).
T2 construct: SCREAM (SCRM, ICE1), Arabidopsis thaliana, At3G26744, residues 1-404 (lacks the C-terminal ACTL domain); pGEX-4T-1; GST kept because the protein was loaded on anti-GST probes for BLI; also called SCRM1ΔC; source: E. coli BL21, purified (glutathione agarose resin); not shown: GST, N-terminal, kept
T2 sequence (looked up): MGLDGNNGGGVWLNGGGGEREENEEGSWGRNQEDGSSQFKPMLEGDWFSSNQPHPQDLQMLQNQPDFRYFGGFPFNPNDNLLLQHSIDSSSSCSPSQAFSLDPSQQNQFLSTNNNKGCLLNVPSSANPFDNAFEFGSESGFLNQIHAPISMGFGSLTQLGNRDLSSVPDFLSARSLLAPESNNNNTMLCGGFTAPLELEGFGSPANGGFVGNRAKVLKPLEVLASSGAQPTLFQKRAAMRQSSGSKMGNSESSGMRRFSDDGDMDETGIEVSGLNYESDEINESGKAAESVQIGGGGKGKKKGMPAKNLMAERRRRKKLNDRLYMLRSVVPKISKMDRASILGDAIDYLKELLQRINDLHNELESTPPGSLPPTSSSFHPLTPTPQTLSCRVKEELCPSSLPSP
The test can be described thus: BLI; as a1, samples incubated 30 min with a 1:4 molar ratio of the synthetic E-box repeat fragment; analyte 200-3.125 nM or 1000-25 nM. The note with it: both partners purified.

Test [8] deals with T2, GST-fused SCRMΔC (1-404). The test can be described thus: BLI; as a1, samples incubated 30 min with a 1:4 molar ratio of the TMM promoter fragment containing the E-box; analyte 200-3.125 nM or 1000-25 nM. The note with it: both partners purified.
Test [9] addresses T2, GST-fused SCRMΔC (1-404). The test can be described thus: BLI; as a1, samples incubated 30 min with a 1:4 molar ratio of the TMM promoter fragment containing a mutant E-box (control); analyte 200-3.125 nM or 1000-25 nM. The note with it: both partners purified.
For test [10], the target named is T3, SCRMΔC (1-404), GST removed (Arabidopsis thaliana, UniProt Q9LSE2 1-404).
T3 construct: SCREAM (SCRM, ICE1), Arabidopsis thaliana, At3G26744, residues 1-404 (lacks the C-terminal ACTL domain); Used for ITC; the methods tell thrombin cleavage of the GST-fused proteins in general, not for ITC by name; also called SCRM1ΔC; source: E. coli BL21, purified (glutathione resin, thrombin, Superdex-200); not shown: GST, N-terminal, cleaved
T3 sequence (looked up): T2 sequence (looked up)
The test can be described thus: ITC; Malvern PEAQ-ITC; 40 µM SCRM/SCRMΔC injected into 4 µM SPCH/MUTE/FAMA; PBS, pH 7.2 (Table S1; methods: pH 7.4); 25 °C; single binding site model; means of two experiments. The note with it: both partners purified. (In general: In ITC the heat of successive injections is recorded.)

Test [11] has as its target T2, GST-fused SCRMΔC (1-404). In words: BLI; Octet Red96; anti-GST probes loaded with 500 nM GST-SCRM or GST-SCRMΔC; SPCH/MUTE/FAMA as analyte at 200-3.12 nM; 30 °C; 1x PBS, 0.02% Tween 20; no DNA; 1:1 model for kon, koff and KD, steady-state analysis for KD (SS). Particulars: both partners purified.

B1: MUTE (1-202) (natural protein, Arabidopsis thaliana, UniProt Q9M8K6 1-202, looked up)
chain: MSHIAVERNRRRQMNEHLKSLRSLTPCFYIKRGDQASIIGGVIEFIKELQQLVQVLESKKRRKTLNRPSFPYDHQTIEPSSLGAATTRVPFSRIENVMTTSTFKEVGACCNSPHANVEAKISGSNVVLRVVSRRIVGQLVKIISVLEKLSFQVLHLNISSMEETVLYFFVVKIGLECHLSLEELTLEVQKSFVSDEVIVSTN
notes: MUTE, Arabidopsis thaliana, residues 1-202; MUTE (1-202) was made both as a GST fusion (pGEX-4T-1, thrombin-cleavable) and with an N-terminal His tag (pET28a); also called MUTE-HIS; MUTE-histag; source: E. coli BL21, purified (Ni-NTA or glutathione resin, Superdex-200)
Broadly, the Kd is the free concentration of one partner at which half of the binding sites on the other are occupied at equilibrium, for simple one-to-one binding. A word on the koff: it is the rate constant with which the complex falls apart. In general, kon refers to a measure of how fast the partners come together. B1: the equilibrium dissociation constant (Kd) in [1] turned out to be 545 nM; in test [2] it was 5.1 ± 0.3 nM; in test [3] it was 565 nM; in test [4] it was 7.3 ± 0.2 nM; in test [5], 11.1 ± 0.8 nM; in [6] it was 6.1 ± 0.5 nM. Further, the koff in [1] came to 0.0017 s⁻¹; in [2], 0.000285 s⁻¹; in [3], 0.0016 s⁻¹; in test [4] it was 0.000286 s⁻¹; in test [5], 0.00023 s⁻¹; in [6] it was 0.000147 s⁻¹. Further, the on-rate (kon) in test [1] turned out to be 3100 M⁻¹ s⁻¹; in test [2], 56200 M⁻¹ s⁻¹; in test [3], 2850 M⁻¹ s⁻¹; in test [4], 39200 M⁻¹ s⁻¹; in [5], 20800 M⁻¹ s⁻¹; in test [6] it was 24200 M⁻¹ s⁻¹.

B2: FAMA (ΔNFAMA) (domain or fragment)
chain: ESQRMTHIAVERNRRKQMNEHLRVLRSLMPGSYVQRGDQASIIGGAIEFVRELEQLLQCLESQKRRRILGETGRDMTTTTTSSSSPITTVANQAQPLIITGNVTELEGGGGLREETAENKSCLADVEVKLLGFDAMIKILSRRRPGQLIKTIAALEDLHLSILHTNITTMEQTVLYSFNVKITSETRFTAEDIASSIQQIFSFIHANTNISGSSNLGNIVFT
modifications: Limits not printed. Start set by analogy with the printed ΔNSPCH 98-364 (one residue before the annotated bHLH). Runs to the native C-terminus. Tag or fusion carrier omitted.
With B2, the equilibrium dissociation constant (Kd) was determined as 8.5 ± 0.7 nM in test [2]; 59.1 ± 1.3 nM in test [7]; 9.2 ± 0.3 nM in [4]; 68.3 ± 1.4 nM in test [8]; 15.5 ± 0.6 nM in test [5]; 85 ± 1.8 nM in test [9]. Besides, the results for the Kd in test [10], in test [6] and in test [11] were 68.1 ± 5.2 nM, 7.2 ± 0.5 nM and 55.1 ± 1.3 nM, respectively. The koff in [2] stood at 0.000367 s⁻¹; in test [7] it was 0.00023 s⁻¹; in test [4], 0.000395 s⁻¹; in test [8], 0.000263 s⁻¹; in [5], 0.000282 s⁻¹; in test [9] it was 0.000221 s⁻¹. The koff in test [6] was found to be 0.000159 s⁻¹; in [11] it was 0.00016 s⁻¹. Also, the on-rate (kon) is 43200 M⁻¹ s⁻¹ in [2]; 3910 M⁻¹ s⁻¹ in [7]; 43200 M⁻¹ s⁻¹ in [4]; 3910 M⁻¹ s⁻¹ in test [8]; 18200 M⁻¹ s⁻¹ in test [5]; 2610 M⁻¹ s⁻¹ in test [9]. In addition, the association rate constant (kon) was 22200 M⁻¹ s⁻¹ in [6] and 2910 M⁻¹ s⁻¹ in test [11].

B3: SPCH (ΔNSPCH, 98-364) (domain or fragment, Arabidopsis thaliana, UniProt Q700C7 98-364, looked up)
chain: GQQKMSHVTVERNRRKQMNEHLTVLRSLMPCFYVKRGDQASIIGGVVEYISELQQVLQSLEAKKQRKTYAEVLSPRVVPSPRPSPPVLSPRKPPLSPRINHHQIHHHLLLPPISPRTPQPTSPYRAIPPQLPLIPQPPLRSYSSLASCSSLGDPPPYSPASSSSSPSVSSNHESSVINELVANSKSALADVEVKFSGANVLLKTVSHKIPGQVMKIIAALEDLALEILQVNINTVDETMLNSFTIKIGIECQLSAEELAQQIQQTFC
notes: the only recombinant SPCH with bHLH domain that the methods list is ΔNSPCH (98-364); source: E. coli BL21, purified (glutathione resin, thrombin, Superdex-200); not shown: GST, N-terminal, cleaved
With B3, the Kd is 7.2 ± 0.4 nM in test [2]; 38.1 ± 1.9 nM in [7]; 3.9 ± 0.3 nM in test [4]; 49 ± 1.3 nM in [8]; 6.8 ± 0.5 nM in [5]; 78.2 ± 1.2 nM in test [9]. The dissociation constant (Kd) in test [10] turned out to be 61.1 ± 4.2 nM; in test [6], 5.8 ± 0.5 nM; in test [11], 59.1 ± 1.3 nM. For the same molecule, the koff in test [2] is 0.000354 s⁻¹; in test [7], 0.000184 s⁻¹; in [4] it was 0.000153 s⁻¹; in test [8] it was 0.000208 s⁻¹; in test [5], 0.000144 s⁻¹; in [9], 0.000183 s⁻¹. The koff in test [6] is 0.000111 s⁻¹; in test [11] it was 0.00012 s⁻¹. Moreover, the kon stood at 49200 M⁻¹ s⁻¹ in test [2]; 4850 M⁻¹ s⁻¹ in test [7]; 39200 M⁻¹ s⁻¹ in [4]; 4250 M⁻¹ s⁻¹ in test [8]; 21200 M⁻¹ s⁻¹ in test [5]; 2350 M⁻¹ s⁻¹ in test [9]. In addition, the kon in test [6] was determined as 19200 M⁻¹ s⁻¹; in test [11] it was 2050 M⁻¹ s⁻¹.
